The target of this experiment is T1, human insulin receptor isoform A (human, UniProt P06213-2 28-1370).
T1 construct: whole, on cells; Tested as P1 membrane preparations of the over-expressing cells; also called hIR-A
Briefly: competitive radio-ligand binding, [125I]-insulin, membranes of 293EBNA cells over-expressing hIR-A. The protocol: IC₅₀ values are determined from 4-parameter logistic non-linear regression analysis (XLFit version 4.0, IDBS). If necessary, curve top or bottom parameters are set to 100 or 0, respectively.
Reported values for Kᵢ are shown as geometric mean±the standard error of the mean (SEM), with the number of replicate determinations indicated by “n” (Table 1).

Substitutions are numbered along the chain they refer to.

4 molecules from patent US20250032588A1 (Eli Lilly, published 2025) can be followed below.

B1: Example 1 fusion protein (SEQ ID NO:12) (Fc fusion)
chain: FVNQHLCGSHLVEALELVCGERGFHYGGGGGGSGGGGGIVEQCCTSTCSLDQLENYCGGGGGQGGGGQGGGGQGGGGGECPPCPAPPVAGPSVFLFPPKPKDTLMISRTPEVTCVVVDVSHEDPEVQFNWYVDGVEVHNAKTKPREEQFNSTFRVVSVLTVVHQDWLNGKEYKCKVSNKGLPAPIEKTISKTKGQPREPQVYTLPPSREEMTKNQVSLTCLVKGFYPSDIAVEWESNGQPENNYKTTPPMLDSDGSFFLYSKLTVDKSRWQQGNVFSCSVMHEALHNHYTQKSLSLSPG
The Ki is the equilibrium dissociation constant of an inhibitor or competing ligand from its target. Molecule B1 yielded a Ki of 24.9 nM.

B2: Example 3 fusion protein (SEQ ID NO:17) (Fc fusion)
chain: FVNQHLCGSHLVEALELVCGERGFHYGGGGGGSGGGGGIVEQCCTSICSLDQLENYCGGGGGQGGGGQGGGGQGGGGQGGPCPPCPAPEAAGGPSVFLFPPKPKDTLMISRTPEVTCVVVDVSQEDPEVQFNWYVDGVEVHNAKTKPREEQFNSTYRVVSVLTVLHQDWLNGKEYKCKVSNKGLPSSIEKTISKAKGQPREPQVYTLPPSQEEMTKNQVSLTCLVKGFYPSDIAVEWESNGQPENNYKTTPPVLDSDGSFFLYSRLTVDKSRWQEGNVFSCSVMHEALHNHYTQKSLSLSLG
The molecule B2 gave a Ki of 10.1 nM.

B3: Example 5 fusion protein (SEQ ID NO:19) (Fc fusion)
chain: B2 chain with I47T
B3 registered a Ki of 35.6 nM.

B4: Example 9 fusion protein (SEQ ID NO:23) (Fc fusion)
chain: FVNQHLCGSHLVEALELVCGERGFFYTEETGGGGGGGIVEQCCTSICSLYQLENYCGGGGGSGGGGSGGGGSGGGGSECPPCPAPPVAGPSVFLFPPKPKDTLMISRTPEVTCVVVDVSHEDPEVQFNWYVDGVEVHNAKTKPREEQFNSTFRVVSVLTVVHQDWLNGKEYKCKVSNKGLPAPIEKTISKTKGQPREPQVYTLPPSREEMTKNQVSLTCLVKGFYPSDIAVEWESNGQPENNYKTTPPMLDSDGSFFLYSKLTVDKSRWQQGNVFSCSVMHEALHNHYTQKSLSLSPG
The molecule B4 yielded a Ki of 3.74 nM.
